Here are results for 1 molecule from patent US20020110853A1 (IMMUNEX, published 2002).

Assay [1] deals with T1, human TWEAK receptor (TWEAKR), expressed on transfected COS cells (human, UniProt Q9NP84 28-129).
T1 construct: 129 residue polypeptide cloned from a HUVEC library; Signal peptide 1-27 is predicted
T1 sequence: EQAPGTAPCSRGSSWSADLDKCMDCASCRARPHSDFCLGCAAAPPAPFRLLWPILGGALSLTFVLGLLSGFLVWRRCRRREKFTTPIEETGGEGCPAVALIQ
Put plainly: expression cloning by panning with TWEAK coated beads, then slide binding on transfected COS cells. From the text: To clone TWEAKR cDNA, an expression vector encoding a growth hormone leader, a leucine zipper multimerization domain, and the C-terminal extracellular domain of human TWEAK (see Chicheportiche et al., J. Biol. Chem. 272(51):32401, 1997) was constructed. This expression vector, which was named pDC409-LZ-TWEAK, comprised the DNA sequence SEQ ID NO: 1 and encoded the polypeptide SEQ ID NO:2. pDC409-LZ-TWEAK conditioned supernatants were produced by transient transfection into CVI-EBNA cells. These supernatants were incubated with magnetic beads coated with polyclonal goat anti-mouse antibody that had previously been incubated with a mouse monoclonal antibody against the leucine zipper. Control beads were produced by mixing the coated beads with supernatants from cells transfected with empty vector.
A monolayer of COS cells grown in a T175 flask was transfected with 15 μg of DNA pools of complexity of 100,000 from a human umbilical vein endothelial cell (HUVEC) cDNA expression library. After 2 days these cells were lifted from the flask, and incubated in 1.5 mls of binding media plus 5% non-fat dried milk for 3 hours at 4° C. on a rotator wheel. […] Slide binding was performed as described more fully below, with the exception that TWEAKR positive slides were detected by incubation with […] followed by incubation with ¹²⁵I-labled M15 anti-leucine zipper.

For assay [2], the target named is T2, DR3, expressed on transfected COS cells (UniProt Q93038 25-417, limits assumed).
T2 construct: whole, on cells; also called Apo3; WSL-1
T2 sequence (looked up): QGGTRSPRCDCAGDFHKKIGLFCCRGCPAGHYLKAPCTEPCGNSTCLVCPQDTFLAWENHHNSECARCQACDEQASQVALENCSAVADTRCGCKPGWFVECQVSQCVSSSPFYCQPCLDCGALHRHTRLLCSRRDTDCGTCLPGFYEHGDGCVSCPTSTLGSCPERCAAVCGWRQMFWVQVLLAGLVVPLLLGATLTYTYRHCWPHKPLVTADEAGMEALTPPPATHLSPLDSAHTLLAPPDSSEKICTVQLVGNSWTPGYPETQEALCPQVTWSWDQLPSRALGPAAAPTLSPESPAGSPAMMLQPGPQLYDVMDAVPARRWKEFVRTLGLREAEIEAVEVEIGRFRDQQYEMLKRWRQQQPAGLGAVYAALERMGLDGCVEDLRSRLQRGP
Put plainly: slide binding on transfected COS cells, 125I anti-leucine zipper antibody, autoradiography. Here is the method: Slides of COS cells were transfected with expression vectors containing TWEAKR, DR3, or vector without insert (control). After two days the cells were incubated with concentrated supernatants from CV-1 cells transfected with a vector encoding the leucine zipper TWEAK extracellular domain fusion protein. One hour later the cells were washed and probed with an ¹²⁵Ilabeled antibody against the leucine-zipper domain. The slides were washed, fixed, and autoradiography was performed using x-ray film. The TWEAKR transfected cells bound significant amounts of TWEAK. […] This experiment confirmed that the TWEAKR polypeptide identified in part A above, rather than DR3, is the major receptor for TWEAK. After discovery of the functional TWEAK receptor, other investigators also reported that DR3 is not the major receptor for TWEAK (Kaptein et al., FEBS Lett., 485(2-3):135, 2000. The TWEAK-TWEAKR binding interaction was further characterized by Scatchard analysis.

The target in assay [3] is T3, human TWEAKR-Fc (TWEAKR extracellular domain fused to Fc portion from human IgG1) (human, 125-I labeled in the Scatchard assay).
T3 construct: the assays name only TWEAKR-Fc; also called huTWEAKR-Fc
Put plainly: ligand blot of TweakR-Fc (with and without DTT, with and without heating at 100° C.) probed with TWEAK-leucine zipper supernatant and 125I M15 anti-leucine zipper. Here is the method: Ligand blots were generated by running either TweakR-Fc or RP-Fc as a control on a standard SDS-PAGE and blotted onto nitrocellulose. The separate samples were prepared by with and without the addition of reducing agent (DTT) and with and without heating at 100° C. to denature the proteins. This blot was probed with TWEAK-leucine zipper conditioned supernatants followed by ¹²⁵I labeled M15 anti-leucine zipper.

B1: leucine zipper TWEAK extracellular domain fusion protein (product of pDC409-LZ-TWEAK) (ligand)
chain: not shown
notes: Used as conditioned supernatant of transfected CV-1/EBNA cells; also called TWEAK-leucine zipper
Take B1: the values for the binding result in assay [1], in assay [2] and in assay [3] were “binds”, “no binding” and “binds”, respectively.
